Measured values from US20090297438A1 (published 2009).

Key:
[1] = target: T1, human prostate specific membrane antigen (PSMA) on LNCaP prostate cancer cells (human, UniProt Q04609 1-750); test: cell-based or functional assay
[2] = target: T1, human prostate specific membrane …; test: flow cytometry on LNCaP cells, FITC-labeled anti-human IgG detection
Procedure: The human PSMA-expressing prostate cancer cell line LNCaP was used to determine the specificity of anti-PSMA human monoclonal antibodies by flow cytometry. Binding of the 2F5, 2A10, and 2C6 anti-PSMA human monoclonal antibodies was assessed by incubating the LNCaP cells with the anti-PSMA human monoclonal antibodies at different concentrations. The cells were washed and binding was detected with a FITC-labeled anti-human IgG Ab. Flow cytometric analyses were performed using a FACScan flow cytometry (Becton Dickinson, San Jose, Calif.). The human anti-PSMA monoclonal antibody 7F12 (as described in PCT Publication WO 03/064606) was used as a positive control and a non-PSMA specific isotype control antibody was used as a negative control. The results are depicted in FIG. 9. The anti-PSMA human monoclonal antibodies 2F5, 2A10, and 2C6 bound specifically to the PSMA-expressing LNCaP cells.

[3] = target: T1, human prostate specific membrane …; test: radioligand competition on LNCaP cells: unlabeled antibody varied against a fixed concentration of 125I-7F12
Procedure: (§1) LNCaP cells were obtained from ATCC(CRL-1740) and grown in RPMI media containing 10% fetal bovine serum (FBS). The cells were trypsinized and washed once in Tris based binding buffer (24 mM Tris pH 7.2, 137 mM NaCl, 2.7 mM KCl, 2 mM Glucose, 1 mM CaCl₂, IMM MgCl₂, 0.1% BSA) and the cells were adjusted to 2×10⁶ cells/ml in binding buffer. Millipore plates (MAFB NOB) were coated with 1% nonfat dry milk in water and stored a 4° C. overnight. The plates were washed three times with 0.2 ml of binding buffer. Twenty-five microliters of buffer alone was added to the wells (non-specific binding). A fixed concentration of ¹²⁵I-anti-PSMA antibody was added to all wells in a volume of 25 μl. Varying concentrations of unlabeled antibody was added to wells in a volume of 25 μl and 25 μl of LNCaP cells (2×10⁶ cells/ml) in binding buffer were added to all wells. The plates were incubated for 2 hours at 200 RPM on a shaker at 4° C. At the completion of the incubation the Millipore plates were washed three times with 0.2 ml of cold wash buffer (24 mM Tris pH 7.2, 500mM NaCl, 2 mM KCl, 2 mM Glucose, 1 mM CaCl₂, 1 mM MgCl₂, 0.1% BSA). The filters were removed and counted in a gamma counter. Evaluation of equilibrium binding was performed using single site binding parameters with the Prism software (San Diego, Calif.). An isotype control antibody was used as a negative control. […]

[4] = target: T1, human prostate specific membrane …; test: Scatchard analysis, 125I-labelled antibody on LNCaP cells
Procedure: The binding affinity of the 2A10 antibody for the PSMA-expressing prostate cancer LNCaP cell line was tested using a Scatchard analysis.
LNCaP cells were obtained from ATCC(CRL-1740) and grown in RPMI media containing 10% fetal bovine serum (FBS). The cells were trypsinized and washed once in Tris based binding buffer (24 mM Tris pH 7.2, 137 mM NaCl, 2.7 mM KCl, 2mM Glucose, 1 mM CaCl₂, 1 mM MgCl₂, 0.1% BSA) and the cells were adjusted to 2×10⁶ cells/ml in binding buffer. Millipore plates (MAFB NOB) were coated with 1% nonfat dry milk in water and stored a 4° C. overnight. The plates were washed three times with 0.2 ml of binding buffer. Fifty microliters of buffer alone was added to the maximum binding wells (total binding). Twenty-five microliters of buffer alone was added to the control wells (non-specific binding). Varying concentration of ¹²⁵I-anti-PSMA antibody was added to all wells in a volume of 25 μl . Varying concentrations of unlabeled antibody at 100 fold excess was added in a volume of 25 μl to control wells and 25 μl of LNCaP cells (2×10⁶ cells/ml) in binding buffer were added to all wells. The plates were incubated for 2 hours at 200 RPM on a shaker at 4° C. […] The filters were removed and counted in a gamma counter. […]

[5] = target: T2, PSMA immunopurified from LNCaP cells (human, UniProt Q04609 1-750); test: ELISA on PSMA immunopurified from LNCaP cells, HRP goat anti-human IgG (kappa chain-specific) detection
T2 construct: also called purified PSMA; immunopurified PSMA
Procedure: A comparison of anti-PSMA antibodies on binding to immunopurified PSMA was performed by standard ELISA to examine the specificity of binding for PSMA.
PSMA was immunopurified from LNCaP cells and tested for binding against the anti-PSMA human monoclonal antibodies 1C3, 2A10, 2F5, and 2C6. Standard ELISA procedures were performed. The anti-PSMA human monoclonal antibodies were added at a concentration of 5 μg/ml and titrated down at 1:2 serial dilutions. Goat-anti-human IgG (kappa chain-specific) polyclonal antibody conjugated with horseradish peroxidase (HRP) was used as secondary antibody. The human anti-PSMA monoclonal antibody 7F12 was used as a positive control and a blank was used as a negative control. The anti-PSMA human monoclonal antibodies 2A10 and 2F5 bound with high specificity to PSMA.

[6] = target: T1, human prostate specific membrane …; test: radioligand competition on LNCaP cells: unlabeled antibody varied against a fixed concentration of 125I-2A10
Procedure: as §1

T1 sequence (Q04609 whole entry): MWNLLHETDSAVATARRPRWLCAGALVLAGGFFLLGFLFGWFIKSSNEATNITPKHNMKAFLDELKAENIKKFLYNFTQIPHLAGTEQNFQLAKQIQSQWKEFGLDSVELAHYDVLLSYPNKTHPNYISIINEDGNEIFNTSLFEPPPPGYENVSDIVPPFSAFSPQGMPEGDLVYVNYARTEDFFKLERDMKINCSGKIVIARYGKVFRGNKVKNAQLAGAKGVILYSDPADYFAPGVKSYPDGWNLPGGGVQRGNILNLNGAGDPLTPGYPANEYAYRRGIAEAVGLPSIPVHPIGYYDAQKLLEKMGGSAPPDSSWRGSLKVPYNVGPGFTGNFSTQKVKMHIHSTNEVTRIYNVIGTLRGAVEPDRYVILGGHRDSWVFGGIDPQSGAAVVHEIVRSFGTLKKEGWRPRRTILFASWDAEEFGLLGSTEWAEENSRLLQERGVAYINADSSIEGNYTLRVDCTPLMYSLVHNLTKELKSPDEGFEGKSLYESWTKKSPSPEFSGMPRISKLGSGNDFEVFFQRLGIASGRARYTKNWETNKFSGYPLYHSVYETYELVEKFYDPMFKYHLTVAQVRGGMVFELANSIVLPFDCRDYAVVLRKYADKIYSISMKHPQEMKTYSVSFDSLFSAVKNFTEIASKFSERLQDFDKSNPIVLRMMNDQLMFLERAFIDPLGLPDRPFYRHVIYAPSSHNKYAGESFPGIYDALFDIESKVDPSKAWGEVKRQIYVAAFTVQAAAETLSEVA
T2 sequence (Q04609 whole entry): as above

Binder	EC50 (read off the curve) [2] [µg/mL]	EC50 (read off the curve) [5] [µg/mL]	binding result [5]	further results
anti-PSMA HuMAb antibody 2A10 conjugated to a toxin (antibody, V domains shown) VH: EVQLVQSGAEVKKPGESLKISCKGSGYSFTSNWIGWVRQMPGKGLEWMGIIYPGDSDTRYSPSFQGQVTISADKSISTAYLQWSSLKASDTAMYYCARQTGFLWSSDLWGRGTLVTVSS VL: AIQLTQSPSSLSASVGDRVTITCRASQDISSALAWYQQKPGKAPKLLIYDASSLESGVPSRFSGYGSGTDFTLTINSLQPEDFATYYCQQFNSYPLTFGGGTKVEIK				EC50, 3H-thymidine incorporation cell proliferation assay, continuous wash [1]: 0.0643 nM; EC50, 3H-thymidine incorporation cell proliferation assay, three-hour wash [1]: 0.157 nM
anti-PSMA human monoclonal antibody 2A10 (antibody, V domains shown, also called anti-PSMA HuMAb 2A10) VH: EVQLVQSGAEVKKPGESLKISCKGSGYSFTSNWIGWVRQMPGKGLEWMGIIYPGDSDTRYSPSFQGQVTISADKSISTAYLQWSSLKASDTAMYYCARQTGFLWSSDLWGRGTLVTVSS VL: AIQLTQSPSSLSASVGDRVTITCRASQDISSALAWYQQKPGKAPKLLIYDASSLESGVPSRFSGYGSGTDFTLTINSLQPEDFATYYCQQFNSYPLTFGGGTKVEIK	~0.7	~0.04		IC50 (read off the curve) [3]: ~1 nM; Kd [4]: ~0.8 nM; IC50 (read off the curve) [6]: 1 to 2 nM
anti-PSMA human monoclonal antibody 2F5 (antibody, V domains shown) VH: EVQLVQSGAEVKKPGESLKISCKGSGYSFTSNWIGWVRQMPGKGLEWMGIIYPGDSDTRYSPSFQGQVTISADKSISTAYLQWNSLKASDTAMYYCARQTGFLWSFDLWGRGTLVTVSS VL: AIQLTQSPSSLSASVGDRVTITCRASQDISSALAWYQQKPGKAPKLLIYDASSLESGVPSRFSGSGSGTDFTLTISSLQPEDFATYYCQQFNSYPLTFGGGTKVEIKI	~0.8	~0.04		
anti-PSMA human monoclonal antibody 1C3 (antibody, V domains shown) VH: QVQLVESGGGVVQPGRSLRLSCAASGFTFSSYAMHWVRQAPGKGLEWVAVISYDGNNKYYADSVKGRFTISRDNSKNTLYLQMNSLRAEDTAVYYCARAVPWGSRYYYYGMDVWGQGTTVTVSS VL: AIQLTQSPSSLSASVGDRVTITCRASQGISSALAWYQQKSGKAPKLLIFDASSLESGVPSRFSGSGSGTDFTLTISSLQPEDFATYYCQQFNSYPLTFGGGTKVEIK			binds	
anti-PSMA human monoclonal antibody 2C6 (antibody, V domains shown) VH: EVQLVQSGSEVKKPGESLKISCKGSGYSFTNYWIGWVRQMPGKGLEWMGIIYPGDSDTRYSPSFQGQVTISADKSISTAYLQWSSLKASDTAMYYCASPGYTSSWTSFDYWGQGTLVTVSS VL: EIVLTQSPATLSLSPGERATLSCRASQSVSSYLAWYQQKPGQAPRLLIYDASNRATGIPARFSGSGSGTDFTLTISSLEPEDFAVYYCQQRSNWPLFTFGPGTKVDIK			binds	binding result [2]: binds
